Tests used:
[1] = biological target: T1, 牛血清白蛋白(BSA) (bovine, UniProt P02769 25-607); assay: ELISA, BSA coated at 1 μg/ml, anti-His detection, OD450
T1 construct: Control antigen of the specificity ELISA

[2] = biological target: T2, IL-17A重组蛋白 (UniProt Q16552 24-155, limits assumed); assay: BLI (Fortebio)
T2 construct: also called 重组蛋白IL-17A; IL-17A抗原
T2 sequence (looked up): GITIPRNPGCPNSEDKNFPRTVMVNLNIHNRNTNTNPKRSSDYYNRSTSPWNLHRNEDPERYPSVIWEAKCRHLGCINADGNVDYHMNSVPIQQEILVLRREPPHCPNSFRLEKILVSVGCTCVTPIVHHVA

T1 sequence (P02769 25-607 limits assumed): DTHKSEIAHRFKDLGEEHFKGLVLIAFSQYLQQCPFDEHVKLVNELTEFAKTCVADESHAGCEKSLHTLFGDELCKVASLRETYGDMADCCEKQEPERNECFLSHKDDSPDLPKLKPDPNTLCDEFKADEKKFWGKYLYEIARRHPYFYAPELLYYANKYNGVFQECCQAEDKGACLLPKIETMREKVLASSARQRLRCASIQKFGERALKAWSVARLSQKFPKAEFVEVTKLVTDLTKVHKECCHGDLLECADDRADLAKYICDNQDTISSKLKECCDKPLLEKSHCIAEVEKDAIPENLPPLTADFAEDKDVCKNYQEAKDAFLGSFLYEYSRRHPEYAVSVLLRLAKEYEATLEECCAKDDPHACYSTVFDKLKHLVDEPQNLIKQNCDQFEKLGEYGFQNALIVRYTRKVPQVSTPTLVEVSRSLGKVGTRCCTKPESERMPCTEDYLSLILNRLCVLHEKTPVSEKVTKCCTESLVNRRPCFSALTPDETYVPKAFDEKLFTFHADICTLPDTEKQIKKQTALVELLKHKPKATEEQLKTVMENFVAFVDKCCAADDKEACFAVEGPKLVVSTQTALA

- binding result [1]: no binding (tested: 0.1μg/ml)
- Kd [2]: 110 nM
B1: 全人源抗IL-17A单链抗体No.34 (scFv)
scFv: MQVQLVQSGAEVKPPGASVKVSCKASGYTFTTHKIQWVRQAPGQRLEWMGWINTDKGDTKYSQKFQGRVTITSDTSASTAFMDLSSLRSEDTAVYYCARDGEGYAPFGMDVWGQGTTVTVSSGGGGSGGGGSGGGGSDIRLTQSPPSLSASVGDRVTITCRASQTIGSHLNWYQQKPGKAPKLLIYAASSLQSGVPSRFSGSGSGTDFTLTISSLQPEDFATYYCQQSHSGLTFGGGTKVDIK
notes: also called anti-IL-17A scFv No.34; Anti-IL-17A scFv No.34
